This note sets out measurements from paper PMC7057392 (ACS chemical neuroscience, 2020).

The Kd is the concentration at which binding is half-saturated. The low end stands for higher affinity, the high end for lower affinity.

The target in experiment [1] is Cys-min α7 nAChR (human α7 nAChR containing only the C128-C142 and C190-C191 cysteines) (human) (UniProt P36544). The experiment can be described thus: SPR.
For experiment [2], the target named is wild-type human α7 nicotinic acetylcholine receptor (human, UniProt P36544 23-502). The experiment can be described thus: SPR.

As for “PDZ domain of PICK1 (first 126 amino acids of PICK1) (from UniProt Q9NRD5 1-126) (domain or fragment)”, the Kd in experiment [1] stood at 2.6 µM.

B1: PDZ domain of PICK1 (first 126 amino acids of PICK1) (domain or fragment, UniProt Q9NRD5 1-126, looked up)
chain: MFADLDYDIEEDKLGIPTVPGKVTLQKDAQNLIGISIGGGAQYCPCLYIVQVFDNTPAALDGTVAAGDEITGVNGRSIKGKTKVEVAKMIQEVKGEVTIHYNKLQADPKQGMSLDIVLKKVKHRLV
In the case of B1, binding in experiment [2] was characterised by a dissociation constant (Kd) of 2.5 ± 0.4 µM.
